In article PMC11979922:

Target: HOL-30, β-galactoside-binding tandem-repeat galectin from the marine sponge Halichondria okadai (Halichondria okadai)
Test: SEC

## HOL-30, β-galactoside-binding tandem-repeat galectin from the marine sponge Halichondria okadai (natural protein)
  stoichiometry N: 2
